In article PMC9742495:

B1: Sar probe (dsDNA)
DNA 1: GGCGTCGAGCGCCAGGC
DNA 2: GCCTGGCGCTCGACGCC
B2: Sar mutated probe (dsDNA)
DNA 1: GTTCCATCTACTTCACC
DNA 2: GGTGAAGTAGATGGAAC
B3: hrpG motif (dsDNA)
DNA 1: TTTTGTCCTGGCGTCGGGCGCCAGGCGTCGGCGTC
DNA 2: GACGCCGACGCCTGGCGCCCGACGCCAGGACAAAA
B4: hrpX motif (dsDNA)
DNA 1: GCTGCATACAATCGTGTGCGCCAGCGAGCTCGGCG
DNA 2: CGCCGAGCTCGCTGGCGCACACGATTGTATGCAGC

target: Sar (PXO_RS20790) (Xanthomonas oryzae pv. oryzae PXO99A, UniProt A0A0K0GPT9 1-242); experiment: EMSA

Binder	binding result
B1	binds
B2	no binding
B3	binds
B4	binds
